Columns and labels:
Assay in all cases: co-IP; anti-ARMS (mouse, MA1-90667) coupled MagPlex microspheres incubated overnight with cleared RIPA lysates of transfected HEK293 cells; bound TRPV1, ARMS or AKAP79 detected with rabbit antibodies and anti-rabbit-PE on FLEXMAP 3D (MFI); interaction ratio = TRPV1 MFI divided by ARMS MFI; cells untreated or treated with forskolin 50 uM + IBMX 100 uM, H89 10 uM or BPKDi 1 uM
[1] = molecular target: ARMS0 (ARMS with all potential PKA sites mutated to alanine) (rat) (UniProt Q9EQG6)
[2] = molecular target: ARMS_(S1251/52) (ARMS mutant keeping only the PKA site S1251/52) (rat) (UniProt Q9EQG6)
[3] = molecular target: ARMS_(S1439/40) (ARMS mutant keeping only the PKA site S1439/40) (rat) (UniProt Q9EQG6)
[4] = molecular target: ARMS_(S1526/27) (ARMS mutant keeping only the PKA site S1526/27) (rat) (UniProt Q9EQG6)
[5] = molecular target: ARMS_(S882) (ARMS mutant keeping only the PKA site S882) (rat) (UniProt Q9EQG6)
[6] = molecular target: ARMS_(T903) (ARMS mutant keeping only the PKA site T903) (rat) (UniProt Q9EQG6)
[7] = molecular target: Ankyrin-rich membrane spanning protein (ARMS), wild type (rat) (UniProt Q9EQG6)

TRPV1 MFI / ARMS MFI in the ARMS precipitate, cells treated with BPKDi [1]: 2%
TRPV1 MFI / ARMS MFI in the ARMS precipitate, cells treated with H89 [1]: 4%
TRPV1 MFI / ARMS MFI in the ARMS precipitate, cells treated with forskolin + IBMX [1]: 6%
TRPV1 MFI / ARMS MFI in the ARMS precipitate, untreated cells [1]: 5%
TRPV1 MFI / ARMS MFI in the ARMS precipitate, cells treated with BPKDi [2]: 5%
TRPV1 MFI / ARMS MFI in the ARMS precipitate, cells treated with H89 [2]: 6%
TRPV1 MFI / ARMS MFI in the ARMS precipitate, cells treated with forskolin + IBMX [2]: 18%
TRPV1 MFI / ARMS MFI in the ARMS precipitate, untreated cells [2]: 15%
TRPV1 MFI / ARMS MFI in the ARMS precipitate, cells treated with BPKDi [3]: 3%
TRPV1 MFI / ARMS MFI in the ARMS precipitate, cells treated with H89 [3]: 4%
TRPV1 MFI / ARMS MFI in the ARMS precipitate, cells treated with forskolin + IBMX [3]: 6%
TRPV1 MFI / ARMS MFI in the ARMS precipitate, untreated cells [3]: 7%
TRPV1 MFI / ARMS MFI in the ARMS precipitate, cells treated with BPKDi [4]: 25%
TRPV1 MFI / ARMS MFI in the ARMS precipitate, cells treated with H89 [4]: 36%
TRPV1 MFI / ARMS MFI in the ARMS precipitate, cells treated with forskolin + IBMX [4]: 63%
TRPV1 MFI / ARMS MFI in the ARMS precipitate, untreated cells [4]: 60%
TRPV1 MFI / ARMS MFI in the ARMS precipitate, cells treated with BPKDi [5]: 4%
TRPV1 MFI / ARMS MFI in the ARMS precipitate, cells treated with H89 [5]: 5%
TRPV1 MFI / ARMS MFI in the ARMS precipitate, cells treated with forskolin + IBMX [5]: 7%
TRPV1 MFI / ARMS MFI in the ARMS precipitate, untreated cells [5]: 10%
TRPV1 MFI / ARMS MFI in the ARMS precipitate, cells treated with BPKDi [6]: 4%
TRPV1 MFI / ARMS MFI in the ARMS precipitate, cells treated with H89 [6]: 7%
TRPV1 MFI / ARMS MFI in the ARMS precipitate, cells treated with forskolin + IBMX [6]: 9%
TRPV1 MFI / ARMS MFI in the ARMS precipitate, untreated cells [6]: 12%
TRPV1 MFI / ARMS MFI in the ARMS precipitate, cells treated with BPKDi [7]: 3%
TRPV1 MFI / ARMS MFI in the ARMS precipitate, cells treated with H89 [7]: 4%
TRPV1 MFI / ARMS MFI in the ARMS precipitate, cells treated with forskolin + IBMX [7]: 9%
TRPV1 MFI / ARMS MFI in the ARMS precipitate, untreated cells [7]: 9%
Substance: transient receptor potential vanilloid 1 (TRPV1)-YFP (from UniProt O35433 1-838)

Source: paper PMC9680306
